Experiments:
[1] = target: wild-type tau repeat domain (WT tauRD) (human); test: MST; Cy5-labelled wild-type or mutant tau/tauRD titrated with a serial two-fold dilution of DnaJC7 or single DnaJC7 domains; Monolith NT.115; technical triplicates; fit in PALMIST with a 1:1 binding model
[2] = target: P301L tau repeat domain (P301L tauRD) (human); test: as above

Kd [1]: 2200 nM | Kd [2]: 6.2 µM
B1: DnaJC7 (full-length, wild type, recombinant) (natural protein)
chain: MAAAAECDVVMAATEPELLDDQEAKREAETFKEQGNAYYAKKDYNEAYNYYTKAIDMCPKNASYYGNRAATLMMLGRFREALGDAQQSVRLDDSFVRGHLREGKCHLSLGNAMAACRSFQRALELDHKNAQAQQEFKNANAVMEYEKIAETDFEKRDFRKVVFCMDRALEFAPACHRFKILKAECLAMLGRYPEAQSVASDILRMDSTNADALYVRGLCLYYEDCIEKAVQFFVQALRMAPDHEKACIACRNAKALKAKKEDGNKAFKEGNYKLAYELYTEALGIDPNNIKTNAKLYCNRGTVNSKLRKLDDAIEDCTNAVKLDDTYIKAYLRRAQCYMDTEQYEEAVRDYEKVYQTEKTKEHKQLLKNAQLELKKSKRKDYYKILGVDKNASEDEIKKAYRKRALMHHPDRHSGASAEVQKEEEKKFKEVGEAFTILSDPKKKTRYDSGQDLDEEGMNMGDFDPNNIFKAFFGGPGGFSFEASGPGNFFFQFG

From article PMC8429438
